Residue numbers refer to the chain shown, from its start.
T1: recombinant human ZNRF3 extracellular domain (human, UniProt Q9ULT6 56-219)
T1 construct: extracellular domain; also called huZNRF3; human ZNRF3 ECD
T1 sequence (looked up): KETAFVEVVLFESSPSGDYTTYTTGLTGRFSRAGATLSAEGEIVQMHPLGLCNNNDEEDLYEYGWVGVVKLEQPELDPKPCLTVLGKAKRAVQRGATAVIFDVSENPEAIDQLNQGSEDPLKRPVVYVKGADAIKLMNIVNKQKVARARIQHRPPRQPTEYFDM

B1: ZNRF3-287 (antibody, V domains shown)
VH: EVQLVGSGGGLVQPGRSLKISCAASGFTFSYYGMAWVRQAPTRGLEWVATITYNGSKSYYRDSVKGRFTISREYAKSTLYLQMDDLTSEDTATYFCARRTTGMLFDYWGQGVLVTVSS
VL: QAVLTQPNSVSMSLGSTVKLSCTLNSGNIENNFVHWYQQYEGRSPTTMIYNDDKRPDGVPDRFSGSIDSSSNSAFLTINNVEIGDEAIYFCHSFVSSIHIFGGGTKLTVL
notes: Rat clone; VH/VL only
B2: ZNRF3-223 (antibody, V domains shown)
VH: EVQLVESGGGLVQPGESLKLSCSASGFTFSNYGMHWIRQVPGKGLDWVAYITNSGGSLYAAAVKGRFTISRDNAKNTLYLELTSLKSEDTAIYHCARGYSYPGPYWGRGTLVTVSS
VL: DIQVTQSPSSLLASLGERVTITCQTGQSINNYLNWYQQRPGQAPLLLIYFATSLQTGVPSRFSGQYSGRSFTLTITSLEPEDIANYFCLQHYSPPYTFGAGTKLELR
notes: Rat clone; VH/VL only
B3: ZNRF3-329 (antibody, V domains shown)
VH: EVQLVESGGGLVQPGKSLKLSCSASGFTFSSHGMHWIRQAPGKGLDWVAYISNNSGTIYSAAVRGRFTISRDNSKNTLFLQLNSLKSEDTAIYYCARGYNYPGAYWGQGTLVTVSS
VL: B2 VL with G26S, N30R, R39K, A43V, L45I, F50Y, G57D, V58M, P94V, R107K
notes: Rat clone; VH/VL only
B4: ZNRF3-244 (antibody, V domains shown)
VH: B3 VH with H32Y, A40T, N53T, I58V, S60A, A61D, R64K, S74A, F79Y, K86Q
VL: B2 VL with G26S, N30S, Y32N, R39K, L45M, F50Y, V58M, S93N, R107K
notes: Rat clone; VH/VL only
B5: ZNRF3-231 (antibody, V domains shown)
VH: B2 VH with T52S, A61D, T83N, R108Q
VL: B2 VL
notes: Rat clone; VH/VL only
B6: ZNRF3-270 (antibody, V domains shown)
VH: B2 VH with S87P
VL: B2 VL
notes: Rat clone; VH/VL only
B7: ZNRF3-219 (antibody, V domains shown)
VH: EVQLVESGGGLVQPGRSLKVSCAASGFTFSTFAMAWVRQAPKKGLEWVATITPGGSNTYYPDSVKGRFTISRDNAKSTLYLQMDSLRSEDTANYYCAKCGYPGITSFDYWGQGVMVTVSS
VL: DIQMTQSPSFLSASVGDRVSINCKASQNIGKYLNWYQQELGEAPKRLIYNTNNLQTGIPSRFSGSGSGTDYTLTISGLQPEDFATYFCLQHNGFPLTFGSGTKLEIK
notes: Rat clone; VH/VL only
B8: ZNRF3-305 (antibody, V domains shown)
VH: EVLLQQSGAELVRPGSSVKISCKTSGYTFTDYYLHWVKQRPEQGLVWIGRINPINGKTVCIEKFKTKATLTADKSSNTAYMELSSLTSEDTATYFCTRGGLAYWGQGTLVTVSS
VL: DIQMTQSPSSLPASLGERVTISCRASQGISNNLNWYQQKPDGTIKPLIYYTSNLQSGVPSRFSGSGSGTDYSLTIGSLEPEDFTMYYCQQDASFPPTFGAGTKLELK
notes: Rat clone; VH/VL only
B9: ZNRF3-269 (antibody, V domains shown)
VH: EIQLQESGPGLVKPSQSLSLTCSVTDDTITSGYDWSWIRKFPGNKMEWMGDISSSGHTNYNPSLQIRISITRDTSKNQFFLQLNSVTTEDSATYYCARGGFLFPFTFWGQGTLVTVSS
VL: B8 VL with G28V, I29L, S30N, I48L, G76T, E79D, T84A, M85I, A100G
notes: Rat clone; VH/VL only
B10: ZNRF3-247 (antibody, V domains shown)
VH: EVQLVGSGEGLVQPGSSMKLSCVASGFTFSNSGMNWIRQAPKKGLEWIALIYYTNTYYADSVKGRFTISRDNSKNTLYLEMNSLRSEDTAMYYCAKRGLTGSVDYWGQGVMVTVSS
VL: DIQMTQSPSFLSASVGDRVTINCKASQNINRYLNWYQQKLGEAPKRLIYDTSNLQTGIPSRFSGSGSGTDFTLTISSLQPEDFATYFCLQHDSFPNTFGTGTKLELK
notes: Rat clone; VH/VL only
B11: ZNRF3-265 (antibody, V domains shown)
VH: EVQLVESGGGLVQPGRSMKLSCVASGFSFSKYGMAWVRQAPTKALEWVAIISQDGSRIYYGGSVKGRFTLSRDNEKSTLHLHMNSLRSEDTATYYCARGSILRMITFFDYWGQGVTVTVSS
VL: DIQMTQSPASLSASLGETVSIECLASEGISNDLAWYQQKSGKSPRLLIYAASRLQDGVPSRFSGSGSDTRFSLKISGMHPEDEADYFCQQSYGYPLTFGSGTKLEIK
notes: Rat clone; VH/VL only
B12: ZNRF3-312 (antibody, V domains shown)
VH: QVQLQQSGAELVKPGSSVKMSCKASGYSFTTYYIYWINQRPGQGLEWIGRIGLGSGDTDYNEKFKGKATFTVDKFSNTAYLQLSSLTPEDTAVYYCARWDYGYRGFAYWGQGTLVTVSS
VL: DVVMTQTPVSLSVSLGGQVSISCRSSQSFVHSDGNTYLNWYLQTPGQSPQLLIYKVSNRLSGVPDRFSGSGSGTYFTLKISRVEHDDLGVYYCGQASKIPLTFGSGTKLEIK
notes: Rat clone; VH/VL only
B13: ZNRF3-237 (antibody, V domains shown)
VH: QIQLVQSGPELKKPGESVKISCKASGYTFTDYAMHWVKQVPGKGLKWMGWINTYTGKPTYADDFKGRFVFSLEASASTVNLQISNLKNEDTANVFCARGGLLSRGWFAYWGQGTLVTVSS
VL: B12 VL with V2I, T36S, N39S, T44K, K55E, Y75D
notes: Rat clone; VH/VL only
B14: ZNRF3-296 (antibody, V domains shown)
VH: EVQLVESGGGLVQPGKSLRLSCSASGFTFSNYGLHWIRQAPGKGLDWLGYSSSNSGTVYGDAVKGRVTISRDNAKNTLYLQLNSLKSEDTAIYYCARGYSSSPFAYWGQGTLVTVSS
VL: DIVLTQSPALAVSLGQRVTISCKASQNVDGFGIGYMHWYQQKPGQKPKLLIFAGSNLASGIPARFSGSGSGTDFTLTIDPVETDDIATYYCQQNKDFPLTFGSGSRLEIT
notes: Rat clone; VH/VL only
B15: ZNRF3-255 (antibody, V domains shown)
VH: EVQLVESGGGLVQPGRSLKLSCAASGFTFSSFTMAWVRQAPKKGLEWVASISSGGGGTYYPDSVKGRFTISRDNAKSTLYLQMDSLRSEDTASYYCATGGFAYWGQGTLVIVSS
VL: DIQMTQSPSSLPASLGDRVTITCRASQDIGSYLRWFQQKPGKSPRLMIYGATSLANGVPSRFSGSRSGSDYSLTINNLESEDMAIYYCLQHNEFPYTFGTGTKLELK
notes: Rat clone; VH/VL only
B16: ZNRF3-182 (antibody, V domains shown)
VH: EVQLAESGGGLEQPGRSLKLSCAASGFTFSNYDMAWVRQAPTKGLEWVASIIKSGDTSYYRDSVKGRFTVSRDNAKSTLYLQMDSLRSEDTATYYCARHGVGSYDWFADWGQGTLVTVSS
VL: DIVLTQSPALAVSLGQRATISCRASQSVTISGFNLMHWYQQKPGQQPKLLIYRASNLAFGIPARFSGSGSGTDFTLTINPVQADDFTTYYCQQSRKSRTFGGGTKLELK
notes: Rat clone; VH/VL only
B17: ZNRF3-275 (antibody, V domains shown)
VH: QVQLKESGPGLVQPSQTLSLTCTVSGFSFNYYNVHWLRQPPGKGLEWLGVIWSGGNRDYNSALKPRLRISRDTSKTQVFLTLNSLQTEDTGIYYCTRMWGYGYNPFDHWGQGVMVTVSS
VL: DIQMTQSPSFLSASLGDNITITCHASQDIKGWLAWYQQKSGNAPELLIYKASSLQSGVPSRFSGGGSGTEYVLTISNLQPDDIATYYCQLYHSFPFTFGSGTKLETK
notes: Rat clone; VH/VL only
B18: ZNRF3-314 (antibody, V domains shown)
VH: B17 VH with T23N, L37V, R57T, T76S, T96N, H108Y
VL: B17 VL with D17N, A51T, G65S, T106I
notes: Rat clone; VH/VL only
B19: ZNRF3-301 (antibody, V domains shown)
VH: QVQLKESGPGLVQPSQTLSLTCTVSGFSLTSYSVHWVRQHSGKSLEWMGRIWSDGDTSYNSAFTSRLSISRDTSKSQVFLKMNSLQTEDTGTYYCDRSGGSPFFDYWGQGVMVTVSS
VL: QFVLTQSNSVSTNLGSTVKLSCERSIGNIGSNYVNWYQQYEGRSPTTMIYKFDQRPDGVPDRFSGSIDRSSNSVLLTINNVQTEDEADYFCQSYSSDMYIFGGGTKLTVL
notes: Rat clone; VH/VL only
B20: ZNRF3-253 (antibody, V domains shown)
VH: EVQLVESGGGLVQPERSMKLSCAASGFTFSNYGMAWVRQAPTKGLEWVATINSDGSGTYYRGSVKGRFTISRDNAKSTLYLQMNSLRSDDTATYYCTRGRMLRIISFFDYWGQGVMVTVSS
VL: DIQMTQSPASLSASLGETVSIECLASEDIANDLAWYQQKSGKSPQVLIYAASRVQDGVPSRFSGSGSGTRYSLKITDMQPEDVADYFCQQSYGFPLTFGSGTKLEIK
notes: Rat clone; VH/VL only
B21: ZNRF3-254 (antibody, V domains shown)
VH: EVQLVESGGGLVQPERSMKLSCAASGFTFNNYGMAWVRQTPTKGLEWVATINSDGSGTHYRGSVKGRFTISRDNAKGTLYLQMHNLRSDDTATYYCARGRILRIITYFDSWGQGVVVTVSS
VL: B20 VL with T18S, K42R, Y49H
notes: Rat clone; VH/VL only
B22: ZNRF3-300 (antibody, V domains shown)
VH: B20 VH with K76R, S77N, Q82E, M101I, S106T, F107Y
VL: B20 VL with L15V, K74R, T76S, G93S
notes: Rat clone; VH/VL only
B23: ZNRF3-279 (antibody, V domains shown)
VH: QVQLQQSGAELVKPGTSVRLSCKASGYTFTHNHMNWIKQTTGQGLEWIGIINPGSGGTNYNVRFKGKATLTVDTSSSTAFMQLSSLTPEDSAVYYCARNLITIAGPFAYWGQGTLVTVSS
VL: DTVLTQSPALTVSPGERVSISCRASEGVSSYIHWYQQKPGQQPKLLIYKASNLASGVPARFSGSGSGTDFTLTIDPVEADDTATYFCQQSWIDHTFGTGTKLELK
notes: Rat clone; VH/VL only

Each binder was assayed against T1, recombinant human ZNRF3 extracellular … (assay: SPR Biacore 8K; antibody captured on Protein A; ZNRF3 ECD analyte; 25 C).
Procedure: Antibodies were screened for binding to recombinant human RNF43 and ZNRF3 ECDs using a Biacore® 8 k instrument (GE Life Sciences). Briefly, antibodies diluted to 1 μg/ml in 1×HBSP buffer (Cytiva, BR100368) were captured on a Sensor Chip Protein A (GE Life Sciences) using a flow rate of 10 μl/minute and a contact time of 60 seconds. Binding of recombinant human RNF43 and ZNRF3 extracellular domain to the captured antibodies was analyzed at 25° C. using a single cycle kinetics method with a flow rate of 30 μl/minute, a contact time of 180 seconds and a dissociation time of 600 seconds. The concentration of recombinant human RNF43 and ZNRF3 extracellular domain in the single cycle kinetics were 0, 0.8, 4, 20, and 100 nM. Between cycles, the chip was regenerated using 10 mM Glycine HCl pH 1.5 injected for 30 seconds at 30 μl/minute. Data were evaluated using Biacore 8K Evaluation software (GE Life Sciences). Kinetic constants were obtained using a 1:1 binding model with the parameter RI set to zero. Cell surface ligase antibodies with sub-nanomolar affinities may provide advantages in certain instances, for example, in the degradation efficiency which is correlated with the durability of the ternary complex as shown in FIG. 5D.
In the case of B1, the Kd is reported as 0.191 nM.
Work on B2 yielded a Kd of 0.0443 nM.
With B3 the Kd was 0.283 nM.
B4 showed a Kd of 6.85 nM.
B5 was tested, and the Kd was 0.0783 nM.
Work on B6 yielded a Kd of 0.0424 nM.
B7 gave a Kd of 1.9 nM.
B8 was tested, and the Kd was 7.18 nM.
Binder B9 has a Kd of 0.312 nM.
In the case of B10, the Kd is reported as 0.161 nM.
With B11 the Kd was 0.0286 nM.
B12 was tested, and the Kd was 0.611 nM.
B13 gave a Kd of 5.3 nM.
With B14 the Kd was 0.0371 nM.
Work on B15 yielded a Kd of 0.26 nM.
For B16, the Kd was 0.06 nM.
B17 gave a Kd of 0.0565 nM.
Work on B18 yielded a Kd of 0.104 nM.
Work on B19 yielded a Kd of 0.0974 nM.
B20 showed a Kd of 0.483 nM.
Work on B21 yielded a Kd of 0.104 nM.
Binder B22 has a Kd of 0.239 nM.
Work on B23 yielded a Kd of 1.66 nM.

— patent US20240101708A1 (Genentech, published 2024)
